Source: patent publication US7718768B2, “Biologically active peptide [sequence]” (CMS Peptides Patent Holding Company Limited, priority 2001, dated 2010)

Columns and labels:
Format in all cases: in vivo, BALB/c mice
NK cell = NK cell cytotoxicity activity test (YAC-1 target cells, MTT) on spleen cells of treated mice; conditions: IFN-γ and IL-2 groups 3×10^5 IU/kg/day, X ± SD
Method in brief: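 Mice (ten per group) dosed i.p. once daily for 15 days in 0.5 ml saline; spleens taken the next day, erythrocytes lysed with Tris-NH4Cl. Spleen cells (4×10^6/ml) mixed with YAC-1 targets (1×10^5/ml) in triplicate per mouse. Viability by MTT, 4 h at 37° C., OD570nm referenced at 630 nm.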

anti-SRBC antibody = assay: Sheep Red Blood Cell (SRBC) hemolysis test, anti-SRBC antibody formation; conditions: SRBC on day 12, IFN-γ and IL-2 groups 3×10^5 IU/kg/day, X ± SD
Method in brief: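 Hemolytic antibody read-out: day-16 mouse serum (1:500) incubated 10 min at 37 °C with 2% SRBC and Cavy-serum complement, supernatant treated with Drabkin solution, OD540nm measured. Animals were SRBC-immunized i.p. (0.2 ml) on day 12 during dosing.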

[1] = immunity organ weight test (thymus gland index, spleen index); conditions: IFN-γ and IL-2 groups 3×10^5 IU/kg/day, X ± SD
Method in brief: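 Organs (thymus, spleen, liver) were weighed one day after the last of 15 daily i.p. doses given in saline. Indices are expressed as percentage of body weight, with α derived from body weight relative to combined liver and spleen weight.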

T lymphocyte = T lymphocyte transformation in mice with ascitic fluid type liver cancer H22; conditions: 3 × 10^5 IU/kg i.p. once per day
Experimental: Healthy BALB/c mice were randomized into peptide group, rmIFN-γ group, rhIL-2 group, and saline group, 15 mice per group, and prepared into H22 carrying mice model as described in section Method 3. After implantation of the cancer cells, the test substances were administered for 15 days, the mice were killed by cervical dislocation. The spleen was isolated aseptically and manually dispersed in cold D-Hank's solution using an injection needle. The dispersed cell suspension was further sieved through a 100-gauge 150 μm diameter stainless steel sieve. After centrifugation at 200 g for 10 minutes, the supernatant was discarded. The cell pellet was re-suspended in 10 volume of Tris-NH4Cl buffer and then kept standing still for 10 minutes at room temperature. The suspended cells were collected by centrifugation at 150 g for 10 minutes. The cells were washed 2-4 times with cold D-Hank's solution by re-suspending and collecting by centrifugation with condition as described above. The washed cells were then diluted to the desired cell densities by RPMI-1640 culture medium, containing 10% fetal bovine serum.
Spleen cells of density 1×10^6/ml were placed onto a 96 wells cell culture plate, 100 μl/well, three parallel wells each of the assay sample and control sample per mouse. To the assay wells, 100 μl/well ConA of 100 μg/ml in RPMI-1640 was added, and 100 μl/well plain RPMI-1640 was used for the controls. The cells were incubated for 66 hrs at 37° C., 5% CO2. The cells were then pelleted by centrifugation at 150 g for 10 minutes.
50 μl/well MTT of 1 mg/ml in RPMI-1640 was added to the cell pellet and the cells re-suspended by shaking for 2 minutes. The incubation was continued for 4 hours. The supernatant was discarded after centrifugation at 150 g for 10 minutes. 120 μl 40 mM HCl-2-propanol was added to the cell pellet and shaken for 3 minutes. Use an ELISA reader to obtain OD570nm of each well referenced at 630 nm.
Each mouse formed three assay wells and three control wells. The Stimulation Index (SI) of each mouse was obtained by first deriving the average OD of the three parallel wells, then dividing the value of the assay wells by the control wells.

[2] = peptide 0.5 μg/kg/day i.p. 15 days
[3] = peptide 5 μg/kg/day i.p. 15 days
[4] = peptide 50 μg/kg/day i.p. 15 days
[5] = peptide 500 μg/kg/day i.p. 15 days

B1: IFN-γ: recombinant mouse interferon-γ, Beijing Biotech Inc.; positive control immunostimulant (protein, UniProt P01580 23-155, looked up)
Interferon gamma: HGTVIESLESLNNYFNSSGIDVEEKSLFLDIWRNWQKDGDMKILQSQIISFYLRLFEVLKDNQAISNNISVIESHLITTFFSNSKAKKDAFMSIAKFEVNNPQVQRQAFNELIRVVHQLLPESSLRKRKRSRC
Question: Which “NK cell cytotoxic activity (NK cell activity index)” value (NK cell; [2]) does the source give for B1 here?
Answer: 72 ± 9 %

Question: What about the “NK cell cytotoxic activity (NK cell activity index)” value (NK cell; [3]) of the same molecule?
Answer: 80 ± 8 %

Question: And the “NK cell cytotoxic activity (NK cell activity index)” value (NK cell; [4])?
Answer: 73 ± 10 %

Question: And the “NK cell cytotoxic activity (NK cell activity index)” value (NK cell; [5])?
Answer: 77 ± 8 %

Question: And the “anti-SRBC antibody formation (sample serum index)” value (anti-SRBC antibody; [2])?
Answer: 37 ± 10 Unit

Question: And the “anti-SRBC antibody formation (sample serum index)” value (anti-SRBC antibody; [3])?
Answer: 37 ± 10 Unit

Question: And the “anti-SRBC antibody formation (sample serum index)” value (anti-SRBC antibody; [4])?
Answer: 37 ± 10 Unit

Question: And the “anti-SRBC antibody formation (sample serum index)” value (anti-SRBC antibody; [5])?
Answer: 37 ± 10 Unit

Question: And the “weight of spleen (spleen index)” value [1, 2]?
Answer: 0.50 ± 0.04%

Question: What about the “weight of thymus gland (thymus gland index)” value (“weight … (thymus gland index)” for short) [1, 2] of the same molecule?
Answer: 0.15 ± 0.04%

Question: And the “weight … (thymus gland index)” value [1, 3]?
Answer: 0.15 ± 0.04%

Question: What about the “weight of spleen (spleen index)” value [1, 4] of the same molecule?
Answer: 0.50 ± 0.04%

Question: And the “weight … (thymus gland index)” value [1, 4]?
Answer: 0.15 ± 0.04%

Question: And the “weight … (thymus gland index)” value [1, 5]?
Answer: 0.15 ± 0.04%

Question: What about the Stimulation index (T lymphocyte) of the same molecule?
Answer: 1.27 ± 0.14
